Four molecules from patent US20240218079A1, “PLASMA KALLIKREIN ANTIBODIES AND USES THEREOF” (Astria Therapeutics, Inc., priority 2021, published 2024) can be followed below.

For data set [1], the system named is human pkal and prekal. Nature of the data set: ELISA for binding to human pkal and prekal. The following applies: monoclonal IgG from hybridoma. The procedure: Five prekallikrein (prekal) knock-out mice were immunized via the hock route with active human plasma kallikrein (pkal, Enzyme Research Labs, South Bend, IN). When serum titers indicated a robust immune response, draining lymph nodes were harvested, and lymphocytes were fused with a myeloma line using electrofusion. Resulting hybridomas were plated in thirty 384-well plates, and screening by ELISA for binding to human pkal and prekal. Hybridoma lines with preferential binding to pkal were subcloned and expanded.
(§1) Monoclonal IgGs were retested for pkal and prekal binding by ELISA, and were screened for inhibition of pkal (1 nM enzyme) enzymatic activity in a fluorogenic peptide substrate assay (Kenniston et al. J Biol Chem. 2014 Aug. 22; 289(34):23596-608). […] This hybridoma was sequenced to determine heavy and light chain variable domains (SEQ ID NO: 1 and SEQ ID NO: 2; MAb1). […] The nucleic acid sequence of the heavy chain variable domain of MAb1 is provided as SEQ ID NO: 33 and the nucleic acid sequence of the light chain variable domain of MAb1 is provided as SEQ ID NO: 34.

For data set [2], the target named is T1, pkal (1 nM enzyme) (Homo sapiens, UniProt P03952).
T1 construct: active human plasma kallikrein (pkal, Enzyme Research Labs, South Bend, IN); purchased Enzyme Research Labs, South Bend, IN
T1 sequence (P03952 391-638 limits assumed): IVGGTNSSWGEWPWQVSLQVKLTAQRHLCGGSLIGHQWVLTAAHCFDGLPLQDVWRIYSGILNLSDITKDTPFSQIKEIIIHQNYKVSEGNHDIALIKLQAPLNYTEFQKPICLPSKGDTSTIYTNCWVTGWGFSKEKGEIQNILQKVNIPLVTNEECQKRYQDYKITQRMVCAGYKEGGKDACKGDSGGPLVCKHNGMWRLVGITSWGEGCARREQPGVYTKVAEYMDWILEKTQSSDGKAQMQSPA
T1 sequence (P03952 20-390 limits assumed): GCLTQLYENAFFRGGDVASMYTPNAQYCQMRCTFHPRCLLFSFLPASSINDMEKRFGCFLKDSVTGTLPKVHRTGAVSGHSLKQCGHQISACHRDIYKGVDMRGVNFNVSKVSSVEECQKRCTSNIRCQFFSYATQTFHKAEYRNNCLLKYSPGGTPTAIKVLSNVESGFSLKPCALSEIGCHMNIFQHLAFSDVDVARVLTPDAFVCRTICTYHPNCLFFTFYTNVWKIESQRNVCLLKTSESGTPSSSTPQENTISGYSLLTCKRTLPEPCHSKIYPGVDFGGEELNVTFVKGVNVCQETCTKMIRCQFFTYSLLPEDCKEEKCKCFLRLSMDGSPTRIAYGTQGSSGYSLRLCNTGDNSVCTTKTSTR
Nature of the data set: Inhibition of pkal enzymatic activity in a fluorogenic peptide substrate assay (screening). It is filed as biochemical. The procedure:
as §1

For data set [3], the target named is T2, plasma kallikrein (pkal) (Homo sapiens, UniProt P03952).
T2 construct: active human plasma kallikrein (pkal, Enzyme Research Labs, South Bend, IN); purchased Enzyme Research Labs
T2 sequence (P03952 20-390 limits assumed): as above
T2 sequence (P03952 391-638 limits assumed): as the sequence (P03952 391-638 limits assumed) above
The experiment in a line: HMWK cleavage functional assay (bradykinin release measured by ELISA). Type of data set: biochemical. The following applies: inhibition of HMWK cleavage by pkal. The procedure: Specifically, the ability of each antibody to inhibit pkal cleavage of its natural substrate, High Molecular Weight Kininogen (HMWK) was observed. In these experiments 10 or 30 nM pkal was preincubated with inhibitory antibodies for 1 hr at RT, then 600 nM HMWK was added and incubated for 20 minutes and the reaction was quenched by adding 0.5 μM AEBSF. The concentration of bradykinin (BK) released from HMWK as catalyzed by pKal was measured using 1/100 dilution of the reaction product in a commercial ELISA kit (Enzo, Farmingdale, NY).
The HMWK assay parameters were physiologically relevant as the concentration of high molecular weight kininogen used is the concentration that circulates in humans and the concentration of plasma kallikrein used is in the range of what has been estimated in plasma from patients with hereditary angioedema (HAE) during an attack.
The IC90 values for the antibodies were also determined to provide an index of relative potency. In HAE, the therapeutically relevant level of inhibition to prevent HAE attacks is thought to be approximately 90% inhibition of plasma kallikrein. This corresponds to a measurement referred to as IC90, which is the concentration of an agent that results in 90% inhibitory effect.
In general terms: In an ELISA, binding on a coated surface is turned into a signal by an enzyme label.

Data set [4] has as its system trypsin, human pancrease. The experiment in a line: Trypsin inhibition assay. Type of data set: biochemical. The following applies: dilution series starting at 1 μM. The procedure:
Fluorescence intensity was measured every 5 minutes. Gabexate mesylate was used as a positive control, in a dilution series starting at 1 μM. The assay was performed in duplicate.

Data set [5] can be described thus: Cynomolgus pharmacokinetic studies. Type of data set: in vivo, cynomolgus monkey. The following applies: male cynomolgus, IV infusion 5 mg/kg. The protocol: These studies of these antibodies were conducted concurrently, but were independent studies rather than a head-to-head comparison. Cynomolgus monkeys, LM-naïve or naive, 3.0-4.0 kg, male, N=18, were purchased from Hainan Jingang Biotech Co. LTD. The antibodies were prepared in 20 mM Histidine, 150 mM NaCl, 0.01% Tween 80, pH 6.5. In these studies, all antibodies were administered to male cynomolgus monkeys (N=3) via IV infusion over 10 min at 5 mg/kg. Blood was collected from cephalic and saphenous veins into pre-cooled citrate acid tubes at each time point. […] Blood samples were put on wet ice and centrifuged at 4° C. to obtain plasma within 15 minutes of sample collection. Plasma samples were stored at approximately −70 C. Presence of each anti-plasma kallikrein antibody in the plasma samples was determined via ELISA using a plate coated with anti-human antibody as the capture agent and human IgG-heavy and light chain monkey-adsorbed antibody as the detection reagent (Southern Biotech, Cat #: 2049-01 and Bethyl, Cat #A80-319P). ELISA plates were read using a SpectraMax M2.

Data set [6] concerns the target T3, human FcRn (Homo sapiens, UniProt P55899).
T3 construct: purchased Sino Biological CT009-H08H
The experiment in a line: hFcRn binding by SPR (Biacore T200). The procedure:
IgG1 was used as a control antibody. The antibody samples were assessed for FcRn binding via SPR using a Biacore T200. The Biacore chip was a CMS coupled with human FcRn (Sino Biological, Cat. No. CT009-H08H). Running buffer used was PBS 0.05% P20 and pH 6 or pH 7.4.
(In general: SPR reads the build-up and loss of mass on a sensor chip optically.)

Data set [7] deals with T4, human plasma kallikrein (Homo sapiens, UniProt P03952).
T4 construct: active human plasma kallikrein (pkal, Enzyme Research Labs, South Bend, IN); purchased Enzyme Research Labs
T4 sequence (P03952 20-390 limits assumed): as the sequence (P03952 20-390 limits assumed) above
T4 sequence (P03952 391-638 limits assumed): as the sequence (P03952 391-638 limits assumed) above
Nature of the data set: SPR binding to human plasma kallikrein. The following applies: pH 7.4, 37° C. The procedure:
Kinetic properties and selectivity of lead pkal antibodies were examined by SPR at 37° C. and either pH 7.4 or pH 6.0.

T3 sequence (P55899 24-297 limits assumed): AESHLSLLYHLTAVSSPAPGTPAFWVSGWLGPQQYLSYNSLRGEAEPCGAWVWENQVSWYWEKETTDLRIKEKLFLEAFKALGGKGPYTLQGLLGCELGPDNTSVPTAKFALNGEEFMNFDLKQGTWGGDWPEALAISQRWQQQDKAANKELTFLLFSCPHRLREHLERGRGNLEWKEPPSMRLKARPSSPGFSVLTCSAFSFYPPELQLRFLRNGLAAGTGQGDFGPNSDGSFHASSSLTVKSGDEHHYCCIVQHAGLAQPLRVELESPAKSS
T3 sequence (P61769 21-119 partner): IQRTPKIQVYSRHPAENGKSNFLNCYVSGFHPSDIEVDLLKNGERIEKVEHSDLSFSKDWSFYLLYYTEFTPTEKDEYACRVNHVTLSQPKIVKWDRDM

B1: MAb1: murine hybridoma lineage 24L13 anti-plasma kallikrein antibody; VH SEQ ID NO: 1, VL SEQ ID NO: 2 (antibody, V domains shown)
VH: QVQLQQSGAELVKPGASVKISCKASGYAFSSYWMNWVKQRPGEGLEWIGQIYPGDDDTNYNGKFKGKATLTVDKSSTTAYMQLSSLTSEDSAVYFCAGSLMVTTGAPFDYWGQGTTLTVSS
VL: DIVMTQSHKFMSTSVGDRVSITCKASQDVGIAVAWYQQKPGQSPKFLIYWASTRHTGVPDRFTGSGSGTDFTLTIRNVQSEDLSDYFCQQYRSYPLTFGSGTKLELK
Consider B1, for which the “selectivity for pkal over prekal by ELISA” value in data set [1] is “selective for pkal”. For the same molecule, the “inhibition of pkal enzymatic activity (in words)” value (“inhibition … (in words)” below) in data set [2] is “inhibitory”.

B2: MAb4-YTE: MAb4 with M252Y, S254T, T256E; heavy chain SEQ ID NO: 10, light chain SEQ ID NO: 8 (antibody)
heavy: QVQLVQSGAEVKKPGSSVKVSCKASGYAFSSYWMNWVRQAPGQGLEWIGQIYPGDDDTNYNAKFQGRVTITVDKSTTTAYMELSSLRSEDTAVYFCAGSLMVTTGAPFDYWGQGTTVTVSSASTKGPSVFPLAPSSKSTSGGTAALGCLVKDYFPEPVTVSWNSGALTSGVHTFPAVLQSSGLYSLSSVVTVPSSSLGTQTYICNVNHKPSNTKVDKRVEPKSCDKTHTCPPCPAPELLGGPSVFLFPPKPKDTLYITREPEVTCVVVDVSHEDPEVKFNWYVDGVEVHNAKTKPREEQYNSTYRVVSVLTVLHQDWLNGKEYKCKVSNKALPAPIEKTISKAKGQPREPQVYTLPPSREEMTKNQVSLTCLVKGFYPSDIAVEWESNGQPENNYKTTPPVLDSDGSFFLYSKLTVDKSRWQQGNVFSCSVMHEALHNHYTQKSLSLSPG
light: DIQMTQSPSSLSASVGDRVTITCKASQDVGIAVAWYQQKPGKAPKFLIYYASHRGWGVPDRFSGSGSGTDFTLTISSLQPEDFATYFCQQYRSYPLTFGQGTKLEIKRTVAAPSVFIFPPSDEQLKSGTASVVCLLNNFYPREAKVQWKVDNALQSGNSQESVTEQDSKDSTYSLSSTLTLSKADYEKHKVYACEVTHQGLSSPVTKSFNRGEC
With B2, the Hill slope (usually a measure of the steepness of the concentration-response curve) in data set [3] is given as around 2. For the same molecule, the “inhibition of trypsin activity” value in data set [4] is reported as “did not inhibit trypsin activity”. In data set [5], the “CI (mL/day/kg) (Mean ± SD)” value is listed as 1.44 ± 0.33 mL/day/kg, the “T ½ (days) (Mean ± SD)” value is 33.6 ± 8.3 days, the “Vss (mL/kg) (Mean ± SD)” value was determined as 66.8 ± 6.1 mL/kg and the “terminal half-life” value was “approximately 34 days”. In addition, in data set [6] (pH 6.0), the “hFcRn Binding Ka” value worked out at 184000 M⁻¹ s⁻¹ and the “hFcRn Binding Kd” value was found to be 0.0277 s⁻¹. Further, the “hFcRn binding at pH 7.4” value in data set [6] (pH 7.4, data not shown) is “no evidence of binding”. In addition, in data set [7], the “Ka” value came to 69000 M⁻¹ s⁻¹ and the “Kd” value was 7.3e-05 s⁻¹.

B3: MAb2: optimally humanized variant VH5_VL4; VH SEQ ID NO: 3, VL SEQ ID NO: 4 (antibody, V domains shown)
VH: QVQLVQSGAEVKKPGSSVKVSCKASGYAFSSYWMNWVRQAPGQGLEWIGQIYPGDDDTNYNGKFQGRVTITVDKSTTTAYMELSSLRSEDTAVYFCAGSLMVTTGAPFDYWGQGTTVTVSS
VL: DIQMTQSPSSLSASVGDRVTITCKASQDVGIAVAWYQQKPGKAPKFLIYWASTRHTGVPDRFSGSGSGTDFTLTISSLQPEDFATYFCQQYRSYPLTFGQGTKLEIK
B3: the “inhibition … (in words)” value in data set [2] was “maintained both binding affinity and inhibitory potency”.

B4: MAb3: humanized, liability fixed VH SEQ ID NO: 5 with CDR2-optimized VL SEQ ID NO: 6 (antibody, V domains shown)
VH: QVQLVQSGAEVKKPGSSVKVSCKASGYAFSSYWMNWVRQAPGQGLEWIGQIYPGDDDTNYNAKFQGRVTITVDKSTTTAYMELSSLRSEDTAVYFCAGSLMVTTGAPFDYWGQGTTVTVSS
VL: DIQMTQSPSSLSASVGDRVTITCKASQDVGIAVAWYQQKPGKAPKFLIYYASHRGWGVPDRFSGSGSGTDFTLTISSLQPEDFATYFCQQYRSYPLTFGQGTKLEIK
On to B4, for which the “inhibition … (in words)” value in data set [2] was “maintained selectivity and activity”.
